This note sets out measurements from the Immune Epitope Database (IEDB).

One assay deals with HLA-A*02:50. Briefly: IEDB peptide-MHC binding, purified MHC/competitive/fluorescence; filed as Kd, often an IC50 or EC50 that approximates it; ≥ and ≤ were set here for values at or beyond the usual limits of such assays.
Assay [1] concerns the target HLA-B*15:01. Briefly: IEDB peptide-MHC binding, purified MHC/direct/fluorescence; filed as Kd, often an IC50 or EC50 that approximates it; ≥ and ≤ were set here for values at or beyond the usual limits of such assays. The note with it: source organism: Escherichia coli.
A further assay deals with HLA-A*11:01. The description is as above. The conditions noted are these: source organism: Escherichia coli 536.
For another assay, the target named is HLA-A*01:01. The description is as above. The conditions noted are these: source organism: Escherichia coli 536.
A further assay has as its target HLA-B*40:01. The assay is described as above. The note with it: source organism: Escherichia coli 536.
In assay [2] the target is HLA-A*26:01. The description is as above. The conditions noted are these: source organism: Escherichia coli 536.
Assay [3] deals with HLA-B*58:01. The description is as above. The conditions noted are these: source organism: Escherichia coli 536.
Assay [4] deals with HLA-A*02:01. Described as above.
Assay [5] addresses HLA-A*03:01. Described as above. The conditions noted are these: source organism: Escherichia coli.
For assay [6], the target named is HLA-B*08:01. The assay is described as above. The conditions noted are these: source organism: Escherichia coli 536.
Assay [7] has as its target HLA-B*07:02. Described as above. The note with it: source organism: Escherichia coli 536.
Assay [8] concerns the target HLA-A*31:01. The assay is described as above. The conditions noted are these: source organism: Escherichia coli 536.
The next assay deals with HLA-B*27:05. The assay is described as above. The note with it: source organism: Escherichia coli 536.
The target in assay [9] is HLA-A*69:01. The description is as above.
Assay [10] deals with HLA-B*58:01. Kind of assay: IEDB peptide-MHC binding, purified MHC/competitive/fluorescence; filed as Kd, often an IC50 or EC50 that approximates it; ≥ and ≤ were set here for values at or beyond the usual limits of such assays. The note with it: source organism: Escherichia coli.
The target in assay [11] is HLA-B*08:01. The assay is described as above.
The target in assay [12] is HLA-B*07:02. The assay is described as above.
Assay [13] addresses HLA-B*15:01. The assay is described as above.
For another assay, the target named is HLA-B*57:01. The assay is described as above. The conditions noted are these: source organism: Burkholderia mallei SAVP1.
The target of a further assay is HLA-A*02:03. The description is as above. The conditions noted are these: source organism: Burkholderia mallei SAVP1.
The target in a further assay is HLA-A*02:12. Described as above. The note with it: source organism: Burkholderia mallei SAVP1.
The next assay has as its target HLA-B*46:01. The description is as above. The conditions noted are these: source organism: Burkholderia mallei SAVP1.
The next assay deals with HLA-B*39:01. Described as above. The note with it: source organism: Burkholderia mallei SAVP1.
The target in assay [14] is HLA-A*26:01. Described as above. The conditions noted are these: source organism: Burkholderia mallei SAVP1.
Assay [15] addresses HLA-A*02:01. The description is as above. The note with it: source organism: Burkholderia mallei SAVP1.
In a further assay the target is HLA-A*29:02. The description is as above. The note with it: source organism: Burkholderia mallei SAVP1.
Assay [16] concerns the target HLA-A*03:01. The description is as above. The note with it: source organism: Burkholderia mallei SAVP1.
The target of a further assay is HLA-B*27:03. The description is as above. The note with it: source organism: Burkholderia mallei SAVP1.
For the next assay, the target named is HLA-A*24:03. The assay is described as above. The note with it: source organism: Burkholderia mallei SAVP1.
A further assay addresses HLA-A*68:02. Described as above. The note with it: source organism: Burkholderia mallei SAVP1.
A further assay addresses HLA-B*15:17. Described as above. The conditions noted are these: source organism: Burkholderia mallei SAVP1.
A further assay deals with HLA-A*02:19. Described as above. The note with it: source organism: Burkholderia mallei SAVP1.
Another assay has as its target HLA-B*51:01. Described as above.
In the next assay the target is HLA-A*23:01. Described as above. The conditions noted are these: source organism: Burkholderia mallei SAVP1.
A further assay deals with HLA-A*02:16. The assay is described as above. The conditions noted are these: source organism: Burkholderia mallei SAVP1.
The target in assay [17] is HLA-A*02:11. Described as above. The conditions noted are these: source organism: Burkholderia mallei SAVP1.
Assay [18] has as its target HLA-A*31:01. Described as above. The conditions noted are these: source organism: Burkholderia mallei SAVP1.
The target of the next assay is HLA-B*18:01. The description is as above. The conditions noted are these: source organism: Burkholderia mallei SAVP1.
The target of assay [19] is HLA-A*69:01. The description is as above. The conditions noted are these: source organism: Burkholderia mallei SAVP1.
The target of assay [20] is HLA-A*02:11. Kind of assay: IEDB peptide-MHC binding, purified MHC/direct/fluorescence; filed as Kd, often an IC50 or EC50 that approximates it; ≥ and ≤ were set here for values at or beyond the usual limits of such assays. The note with it: source organism: Yersinia enterocolitica subsp. enterocolitica 8081.
[21] abbreviates: source organism: Escherichia coli.
[22] abbreviates: source organism: Burkholderia mallei SAVP1.
The mark [23] stands for this setting: source organism: Salmonella enterica subsp. enterica serovar Paratyphi B str. SPB7.
Where [24] appears, read: source organism: Yersinia pestis.

For RMYGISPWT, the Kd (in general, the concentration at which binding is half-saturated) was 0.0184 µM in the assay with HLA-A*02:50 (setting [21]); 0.455 µM with HLA-B*15:01 [1]; ≥ 20 µM with HLA-A*11:01; ≥ 20 µM with HLA-A*01:01; ≥ 20 µM with HLA-B*40:01; ≥ 20 µM with HLA-A*26:01 [2]. Also, the dissociation constant (Kd) in the assay with HLA-B*58:01 [3] is ≥ 20 µM; with HLA-A*02:01 [4] (setting [21]), 0.507 µM; with HLA-A*03:01 [5] it was 0.799 µM; with HLA-B*08:01 [6] it was ≥ 20 µM; in the assay with HLA-B*07:02 [7], ≥ 20 µM; with HLA-A*31:01 [8] it was ≥ 20 µM. Further, the Kd in the assay with HLA-B*27:05 and with HLA-A*69:01 [9] (source organism: Escherichia coli 536) was ≥ 20 µM each time.

RAAPLMQSL: the Kd in the assay with HLA-B*58:01 [10] was 0.0293 µM; with HLA-B*08:01 [11] (setting [21]), ≥ 20 µM; with HLA-B*07:02 [12] (setting [21]), 0.012 µM.

As to RFNAIWFNH, the Kd with HLA-B*15:01 [13] (setting [22]), with HLA-B*57:01, with HLA-A*02:03, in the assay with HLA-A*02:12, with HLA-B*46:01 and in the assay with HLA-B*39:01 was ≥ 20 µM throughout. In addition, the Kd in the assay with HLA-A*26:01 [14], with HLA-A*02:01 [15], with HLA-A*29:02, with HLA-A*03:01 [16], with HLA-B*27:03 and with HLA-A*24:03 was ≥ 20 µM in each case. The dissociation constant Kd with HLA-A*68:02, with HLA-B*15:17, in the assay with HLA-A*02:19, with HLA-B*51:01 (setting [22]), with HLA-A*23:01 and in the assay with HLA-A*02:16 was ≥ 20 µM throughout. The dissociation constant Kd in the assay with HLA-A*02:11 [17] was ≥ 20 µM; with HLA-A*31:01 [18], 0.0041 µM; in the assay with HLA-B*18:01, ≥ 20 µM; with HLA-A*69:01 [19] it was ≥ 20 µM.

As for LPLAKPMVI, the dissociation constant (Kd) with HLA-B*15:01 [13] (setting [23]) was ≥ 20 µM; with HLA-B*08:01 [11] (setting [23]) it was 0.211 µM; with HLA-B*07:02 [12] (setting [23]), 0.0624 µM; with HLA-B*51:01 (setting [23]) it was 0.626 µM.

For the sequence FLRFGDFKL, the Kd was ≤ 0.0001 µM with HLA-A*02:50 (source organism: Yersinia pestis Nepal516), 0.0055 µM with HLA-A*02:01 [4] (setting [24]), 0.104 µM with HLA-A*02:11 [20] and 18.3 µM with HLA-A*69:01 [9] (setting [24]).
